# Target: maltose-binding protein (MBP-DHhN) modified with 6-azicholestanol (not stated | Drosophila)
# Experiment: cross-linking
substance,measurement,value
"Scube2, HA-tagged (from UniProt Q9JJS0 29-997) (natural protein)",stoichiometry N,1

# Source: publication PMC3682496
